In assay [1] the test system is PKGIα (analogue-sensitive M438G), disulfide-activated. The assay can be described thus: Chemical genetic phosphoproteomic screen, disulfide-activated PKGIα M438G versus unactivated control. The settings on record: n=4. Type of assay: biochemical, human PKGIα; substrates in rat heart homogenate. The source says:
(§1) We employed a chemical genetic method[18] to identify direct substrates of cGMP-activated PKGIα and disulfide bond-activated PKGIα in heart tissue. This method involves mutation of the ATP binding-site of the kinase of interest so that it can accept a ‘bulky' N6-alkylated ATP analogue for example, N6^−phenylethyl ATP. An oxygen atom on the γ phosphate is also replaced with a sulfur atom—giving an N6-alkylated ATPγS analogue—so that the mutant kinase catalyses the transfer of a thiophosphate group (–PO3S^3−) to its substrates instead of a phosphate. The thiophosphate group is nucleophilic, providing a basis for substrates of the analogue-sensitive kinase to be purified by a ‘covalent capture' protocol. LC–MS/MS allows identification of the substrate and localization of the phosphorylation site. Thiophosphorylated proteins can also be detected with a thiophosphate ester-specific antibody. Analogue-sensitive mutants of PKGIα and PKGIα C42S (which cannot form the activating intermolecular disulfide bond) were generated by mutating Met438 in the ATP-binding domain to Gly. This mutation was chosen based on a previous study where an analogue-sensitive mutant of the catalytic subunit of PKA—which shares sequence homology with PKGIα—was engineered. Detailed protocols are given below.
(§2) A pCDNA3 expression vector encoding human FLAG-tagged PKGIα (ref. [41]) underwent site-directed mutagenesis to generate constructs for untagged WT, C42S, M438G and C42S/M438G PKGIα. Mutations were introduced using the QuikChange II Site-Directed Mutagenesis Kit (Agilent) according to the manufacturer's instructions. Expression and purification of the PKGIα mutants was performed according to a published method[42] as follows: suspension FreeStyle 293-F cells (ThermoFisher Scientific) were transfected with the appropriate PKGIα construct using the stable cationic polymer polyethyleneimine (PEI) as a transfection reagent. After ∼72 h cells were harvested by centrifugation (400g; room temperature; 15 min), re-suspended in ice cold lysis buffer (25 mM sodium phosphate buffer pH 6.8; 10 mM ethylenediaminetetraacetic acid (EDTA); 100 mM NaCl; 10 mM benzamidine hydrochloride; and 10 mM dithiothreitol (DTT)) and frozen in liquid N2. Cells were lysed by three freeze (liquid N2)-thaw (37 °C) cycles and the lysate was clarified by centrifugation at 140,000g and 4 °C for 30 min. The soluble protein fraction was loaded onto a pre-equilibrated 8-(2-aminoethylamino)adenosine-3′, 5′-cyclic monophosphate column (8-AEA-cAMP agarose; BioLog, Germany) followed by washing with 20 column volumes of lysis buffer. The column was further washed with lysis buffer +3 M NaCl (5 column volumes) and PKGIα was then eluted with lysis buffer +150 mM NaCl and 500 μM cAMP. Removal of cAMP and buffer exchange was achieved by extensive dialysis against 25 mM sodium phosphate buffer pH 6.8, 2 mM EDTA and 100 mM NaCl. For ITC analysis, WT PKGIα was incubated with 10 mM lipoic acid for 2 h on ice to obtain ∼100% disulfide dimer (confirmed by SDS-PAGE). Oxidized WT or C42S PKGIα was further purified by size exclusion chromatography using a HiLoad 16/600 Superdex 200 pg column (GE Healthcare) with 50 mM sodium phosphate buffer pH 7.4 and 100 mM NaCl. Proteins were concentrated using Amicon Ultra centrifugal filter devices (Merck Millipore). DTT was absent in storage buffers so that the activating disulfide bond would not be reduced and so that the PKGIα M438G mutant would be oxidized to disulfide dimer in the presence of air (confirmed by SDS-PAGE). Protein concentration was determined by Pierce BCA assay (ThermoFisher) and enzyme activity was confirmed using the Omnia kinase assay kit (ThermoFisher).
(§3) Male Wistar rats (9–10 weeks; body weight 300–330 g) were euthanized by intraperitoneal injection of sodium pentobarbitone (200 mg kg^−1) with heparin (500 USP units). […]

Assay [2] deals with PKGIα (analogue-sensitive C42S/M438G), cGMP-activated. Kind of assay: Chemical genetic phosphoproteomic screen, cGMP-activated PKGIα C42S/M438G versus unactivated control. Type of assay: biochemical, human PKGIα; substrates in rat heart homogenate. The settings on record: n=4.
Excerpt: as §1, §2, §3

The mark [3] stands for this setting: disulfide-activated PKGIα M438G vs basal, 1 h, 30 °C, pH 7.5, rat heart homogenate, label-free LC–MS/MS, * P<0.05 Dunnett: only phospholamban S16.
The mark [4] stands for this setting: PKGIα C42S/M438G + 100 μM cGMP vs basal, 1 h, 30 °C, pH 7.5, rat heart homogenate, label-free LC–MS/MS, * P<0.05 Dunnett: all values except phospholamban S16.

B1: Protein NDRG2: PKGIα substrate, phospho site S332 (protein, UniProt Q9QYG0 2-371, looked up)
Protein NDRG2: AELQEVQITEEKPLLPGQTPETAKEAELAARILLDQGQTHSVETPYGSVTFTVYGTPKPKRPAIFTYHDVGLNYKSCFQPLFRFGDMQEIIQNFVRVHVDAPGMEEGAPVFPLGYQYPSLDQLADMIPCILQYLNFSTIIGVGVGAGAYILSRYALNHPDTVEGLVLINIDPNAKGWMDWAAHKLTGLTSSIPDMILGHLFSQEELSGNSELIQKYRGIIQHAPNLENIELYWNSYNNRRDLNFERGGETTLKCPVMLVVGDQAPHEDAVVECNSKLDPTQTSFLKMADSGGQPQLTQPGKLTEAFKYFLQGMGYMASSCMTRLSRSRTASLTSAASIDGSRSRSRTLSQSSESGTLPSGPPGHTMEVSC
modifications: phosphorylated S332
With B1, the “Log2 fold change in phosphorylation, Disulfide versus control” value in assay [1] (setting [3]) turned out to be 1.91. Besides, the “Log2 fold change in phosphorylation, cGMP versus control” value (shortened to “Log2 fold change … cGMP versus control”) in assay [2] (setting [4]) is recorded as 3.42*.

B2: Myosin light chain kinase 3: PKGIα substrate, phospho site S155 (protein, UniProt E9PT87 1-786, looked up)
Myosin light chain kinase 3: MSGVSEEDPEGLGPQGLPALGGACLVTVDKKLNVLTEKVDRLLHFQEDVTEKLQCVCQGMDHLEQGLHRLEASQELGLAGPGSTSPAAAQAAWPEVLELVRAVRQEGAQHGARLEALFKMVVAVDRAITLVGSTIQNSKVDDFILQGTVPWRKGSLADGPEENKEQAEVAGVKPKHVLNTGSVQAATSRALWEESQKQDTPVGTVEGLPLIIDTSLKGADLTQAGASLRQGVEALDPGQEPPPTEAESRLPALASEDTGTTLELSVAIDRISEVLTSLRMSQSAGEGTSSSKPDCSEPGPQPLGPLTTDSDIHSDEGLPRISVRMREMTTPEELFETQGGSPIGSAEAPGPGTVLEDQIPKGARPFPPLPKRSCNNGGASAEEATGPGAEPIRGPSLVTRDWRDEPVGTTDLQQGRDPGAVSPEPGKDHAAQGPGRTEAGRRVSSAAEAAIVVLDDSAAPPAPFEHRVVSIKDTLISTSYTVSQHEVLGGGRFGQVHRCTERSTGLALAAKIIKVKNIKDREDVKNEINIMNQLSHVNLIQLYDAFESKNSFTLIMEYVDGGELFDRITDEKYHLTELDVVLFTRQICEGVHYLHQHYILHLDLKPENILCVSQTGHQIKIIDFGLARRYKPREKLKVNFGTPEFLAPEVVNYEFVSFPTDMWSVGVITYMLLSGLSPFLGETDAETMNFIVNCSWDFDADTFKGLSEEAKDFVSRLLVKEKSCRMSATQCLKHEWLNHLIAKASGSNVRLRSQLLLQKYMAQRKWKKHFHVVTAVNRLRKFPTCP
modifications: phosphorylated at S155
For B2, the “Log2 fold change in phosphorylation, Disulfide versus control” value in assay [1] (setting [3]) came out at 1.13. Besides, in assay [2] (setting [4]), the “Log2 fold change … cGMP versus control” value is listed as 3.16*.

B3: Trifunctional enzyme subunit beta, mitochondrial: PKGIα substrate, phospho site S198 (protein, UniProt Q60587 35-475, looked up)
Trifunctional enzyme subunit …: SAPAVQTKSKKTLAKPNLKNIVVVEGVRIPFLLSGTSYKDLMPHDLARAALSGLLYRTNIPKDVVDYIIFGTVIQEVKTSNVAREAALGAGFSDKTPAHTVTMACISSNQAMTTAVGLIASGQCDVVVAGGVELMSDVPIRHSRNMRKMMLDLNKAKTLAQRLSLLTKFRLNFLSPELPAVAEFSTNETMGHSADRLAAAFAVSRMEQDKYALRSHSLAKKAQDEGHLSDIVPFKVPGKDTVSKDNGIRPSSLEQMAKLKPAFIKPYGTVTAANSSFLTDGASAMLIMSEDRALAMGYKPKAYLRDFIYVSQDPKDQLLLGPTYATPKVLEKAGLTMNDIDAFEFHEAFSGQILANFKAMDSDWFAQNYMGRKTKVGAPPLEKFNIWGGSLSLGHPFGATGCRLVMAAANRLRKDGGQYALVAACAAGGQGHAMIVEAYPK
modifications: phosphorylated at S198
Take B3: in assay [1] (setting [3]), the “Log2 fold change in phosphorylation, Disulfide versus control” value is recorded as 0.04. The “Log2 fold change … cGMP versus control” value in assay [2] (setting [4]) is listed as 3.44*.

B4: Mitochondrial ribonuclease P protein 1: PKGIα substrate, phospho site T377 (protein, UniProt Q5U2R4 36-414, looked up)
tRNA methyltransferase 10 …: VSSKVPSLPCHNKDSTSPPEQLELDGWKTTMKSSIQENGVSVVSDKDEDSLAATRELIEMWRLLGKEVPEHITEEELKTLMECASKSAKKKYLRYLYGKEMMKKAKQMKKEMKAAAREEAKRARSLEPSTGEEQRDFMFLRLWDRQTNIALGWKGVQAMQFGQPLVFDMAYDNYMKPSELQNTVSQLLESEGWNRRNVDPFHIYFCNLEVDGAYHRELVKRYGEKWDKLLLTATEKSPVDLFPKDSIIYLTADSPNVMTTFKHDKIYIIGSFVDKNTQTGTSLAKAKRQNLATECLPLDKYLQWDVGNKNLTLDQMIRILLCLKNTGNWEEALKFVPRRKHTGYLEVPEHSQAAFRKLKKTKTLNSFRKGSLNVHMWKR
modifications: phosphorylated at T377
Turning to B4, the “Log2 fold change in phosphorylation, Disulfide versus control” value in assay [1] (setting [3]) was 0.45. Moreover, the “Log2 fold change … cGMP versus control” value in assay [2] (setting [4]) is recorded as 1.98*.

B5: Polymerase I and transcript release factor: PKGIα substrate, phospho sites T304 (r27) and S302 (r28) (protein, UniProt P85125 1-392, looked up)
Caveolae-associated protein 1: MEDVTLHIVERPYSGYPDASSEGPEPTPGEARATEEPSGTGSDELIKSDQVNGVLVLSLLDKIIGAVDQIQLTQAQLEERQAEMEGAVQSIQGELSKLGKAHATTSNTVSKLLEKVRKVSVNVKTVRGSLERQAGQIKKLEVNEAELLRRRNFKVMIYQDEVKLPAKLSVSKSLKESEALPEKEGDELGEGERPEEDAAAIELSSDEAVEVEEVIEESRAERIKRSGLRRVDDFKKAFSKEKMEKTKVRTRENLEKTRLKTKENLEKTRHTLEKRMNKLGTRLVPVERREKLKTSRDKLRKSFTPDHVVYARSKTAVYKVPPFTFHVKKIREGEVEVLKATEMVEVGPDDDEVGAERGAETDLLRGSSPDVHTLLEITEESDAVLVDKSDSD
modifications: phosphorylated at T304/S302
As to B5, the “Log2 fold change in phosphorylation, Disulfide versus control” value in assay [1] (setting [3]) amounted to 1.30; in assay [1] (phospho site S302 (second site of this protein), not significant), 1.32. Besides, the “Log2 fold change … cGMP versus control” value is 3.05* in assay [2] (setting [4]) and 3.16* in assay [2] (phospho site S302 (second site of this protein), * P<0.05).

(Values after PMC5095173, “Disulfide-activated protein kinase G Iα regulates cardiac diastolic relaxation and fine-tunes the Frank–Starling response” (Nature Communications, 2016).)
